Reference: patent US20230312753A1 (IMMUNORIZON, published 2023)

Legend:
[1] = target: T1, h5T4-His (recombinant human 5T4) (human, UniProt Q13641 32-355, limits assumed); test: ELISA on coated h5T4-His (FIG. 43B)
T1 construct: Bought protein; also called recombinant 5T4
T1 sequence (looked up): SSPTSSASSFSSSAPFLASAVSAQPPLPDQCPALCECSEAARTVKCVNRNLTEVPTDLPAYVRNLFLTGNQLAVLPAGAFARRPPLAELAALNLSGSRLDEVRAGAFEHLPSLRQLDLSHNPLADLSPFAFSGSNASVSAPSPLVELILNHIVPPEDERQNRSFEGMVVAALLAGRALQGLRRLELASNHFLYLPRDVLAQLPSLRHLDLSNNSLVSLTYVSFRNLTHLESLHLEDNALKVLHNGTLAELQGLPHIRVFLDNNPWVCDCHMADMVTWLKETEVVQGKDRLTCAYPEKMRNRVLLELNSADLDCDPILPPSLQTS
Description: (§1) Methods: ELISA binding of Tribody/ProTribody antibody constructs to antigens: Dilute target protein (hCD3epsilon-His (cat # 10977-H08S, supplier Sino Biological); h5T4-His (cat# 19845-H08H, supplier Sino Biological); NKG2A-CD94-ECD-hFc, Lot:20200724002, provided by CP; or NKG2D-ECD-hFc, Lot: 20200413002, provided by CP) into PBS with final concentration of 0.01 µg/mL for hCD3epsilon-His, 0.3 µg/mL for h5T4-His, 1 µg/mL for NKG2A-CD94-ECD-hFc and 0.7 µg/mL for hNKG2D-ECD-hFc respectively and coat 100 µL/well on ELISA plate (cat: 9018, supplier Corning) respectively. Incubate O/N, 4° C. The plates were blocked with 250 µL 1% BSA in PBST for 1 hr at 37° C.Wash 4 times with PBST. All the washes are done using Biotek (Elx 405). All the Tribody set antibodies were diluted to 400 nM and make 4-fold serially dilutions (12 points, including 0 point). Add 100 µL/well diluted antibody constructs solution to plate, incubate for 1 hr at 37° C.Wash 4 times with PBST. Add 100 µL/well anti-human kappa light chain-HRP (1:10000), incubate for 0.5 hr at 37° C. Wash 4 times with PBST. 100 µL/well of TMB substrate was added and incubated at room temperature for 5 min. 100 µL/well of 1N HCl to terminate reaction. Plates were read using ELISA plate reader at 450 nm wavelength (instrunet SpectraMax M5e). Data Analysis was performed using Graphpad prism 5 software by using nonlinear regression (curve fit): log (agonist) vs. response, agonist is antibody concentration (nM) and response is OD value.

[2] = target: T2, NKG2A on NK92 cells (endogenous) (UniProt P26715 1-233, limits assumed); test: FACS on NK92 cells, endogenous NKG2A (FIG. 45C)
T2 construct: whole, on cells
Description: (§2) Suspension cultured cells was harvested directly, and adherent cell were digested using TrypLE Express Enzyme (cat: 12604-013, supplier Life technologies). Centrifuge at 1000 rpm for 5 min and discard the supernatant. Cells are suspended at a concentration of 2×10⁶/mL in FACS buffer (2% FBS in PBS) and add 100 µL/well of cell suspension to the plate (cat #3799, supplier Corning). Centrifuging the plates at 2000 rpm for 5 min and discard the supernatant. Re-suspend the cells in 100 µL/well of Tribody set antibodies (400 nM start, 4-fold dilution, 8 point including 0 point) and incubate the plate for 60 min at 4° C. Centrifuge the plate at 2000 rpm, 4° C. for 5 min and discard supernatant. Then wash the cells 3 times with 170 µL FACS buffer. Re-suspend the cells at 100 µL/well with secondary antibody (goat anti-human Ig Fab-FITC, Cat # 2085-02, Southern biotech) with 1:400 dilution and incubate the plate for 30 min at 4° C. in dark. Centrifuge the plate at 2000 rpm, 4° C. for 5 min and discard supernatant. […] The fluorescence intensity of the staining was measured using flow cytometer (BD, FACSVerse). The geometric mean fluorescence intensity (GMFI; median fluorescence intensity (MFI)) of set antibodies staining was calculated (BD FACSuite software). Dose-response curves were generated and EC50s for thetrispecific variants binding were calculated using GraphPad Prism software.

[3] = target: T3, hCD3epsilon-His (recombinant human CD3 epsilon) (human, UniProt P07766 23-126); test: ELISA on coated hCD3epsilon-His (FIG. 43A)
T3 construct: Bought protein; also called recombinant hCD3ε protein; human CD3ε
Description: as §1, with “Data Analysis was performed using Graphpad prism 5 software by using nonlinear regression (curve fit): log (agonist) vs. response, agonist is antibody concentration (nM) and response is OD value.” left out

[4] = target: T4, 5T4 on cells (NCI-H226 endogenous; CHO over-expressing 5T4) (UniProt Q13641 32-420, limits assumed); test: FACS on CHO cells over-expressing ectopic 5T4 (FIG. 45D)
T4 construct: whole, on cells
T4 sequence (looked up): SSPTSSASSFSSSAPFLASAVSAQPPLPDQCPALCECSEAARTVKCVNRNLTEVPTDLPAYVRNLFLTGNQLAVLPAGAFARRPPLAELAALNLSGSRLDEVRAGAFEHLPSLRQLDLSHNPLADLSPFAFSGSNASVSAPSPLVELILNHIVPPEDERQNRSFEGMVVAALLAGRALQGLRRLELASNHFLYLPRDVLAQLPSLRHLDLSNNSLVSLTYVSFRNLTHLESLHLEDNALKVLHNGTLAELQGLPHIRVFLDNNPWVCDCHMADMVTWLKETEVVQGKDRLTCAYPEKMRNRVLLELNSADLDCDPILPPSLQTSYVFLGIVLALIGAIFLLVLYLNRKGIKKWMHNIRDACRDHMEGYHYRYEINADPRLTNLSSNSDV
Description: Then wash the cells 3 times with 170 µL FACS buffer. Re-suspend the cells at 100 µL/well with secondary antibody (goat anti-human Ig Fab-FITC, Cat # 2085-02, Southern biotech) with 1:400 dilution and incubate the plate for 30 min at 4° C. in dark. Centrifuge the plate at 2000 rpm, 4° C. for 5 min and discard supernatant. Then wash the cells 3 times with FACS buffer and analyze the sample with FACS verse. The fluorescence intensity of the staining was measured using flow cytometer (BD, FACSVerse). The geometric mean fluorescence intensity (GMFI; median fluorescence intensity (MFI)) of set antibodies staining was calculated (BD FACSuite software). Dose-response curves were generated and EC50s for thetrispecific variants binding were calculated using GraphPad Prism software.
Results: The expressed trispecific constructs were analyzed for their binding to cells expressing endogenous CD3ε, 5T4 and NKG2A/NKG2D. […] (FIG. 45F).

[5] = target: T5, NKG2A/CD94 on CHO cells (CHOK1-NKG2A-CD94) (human, UniProt P26715 1-233; Q13241 1-179, limits assumed); test: FACS on CHO cells over-expressing ectopic NKG2A (NKG2A/CD94 by the legend) (FIG. 45E)
T5 construct: whole, on cells; also called CHO cells over-expressing NKG2A/CD94; CHO cell line over expressing ectopic NKG2A
Description: as §2

T2 sequence (P26715 whole entry): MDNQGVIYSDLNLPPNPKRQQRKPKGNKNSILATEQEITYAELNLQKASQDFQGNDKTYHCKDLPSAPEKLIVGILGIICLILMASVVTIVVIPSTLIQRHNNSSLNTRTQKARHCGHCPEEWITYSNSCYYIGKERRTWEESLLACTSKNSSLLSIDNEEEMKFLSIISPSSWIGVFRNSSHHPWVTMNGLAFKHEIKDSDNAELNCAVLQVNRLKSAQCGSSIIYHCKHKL
T5 sequence (P26715 whole entry, chain 1 of 2): as the sequence (P26715 whole entry) above
T5 sequence (Q13241 whole entry, chain 2 of 2): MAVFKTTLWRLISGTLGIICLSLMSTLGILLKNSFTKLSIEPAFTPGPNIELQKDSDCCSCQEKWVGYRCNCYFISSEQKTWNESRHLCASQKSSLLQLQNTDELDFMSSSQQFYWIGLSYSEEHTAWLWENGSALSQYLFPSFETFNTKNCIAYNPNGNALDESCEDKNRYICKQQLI
T3 sequence (P07766 23-126 limits assumed): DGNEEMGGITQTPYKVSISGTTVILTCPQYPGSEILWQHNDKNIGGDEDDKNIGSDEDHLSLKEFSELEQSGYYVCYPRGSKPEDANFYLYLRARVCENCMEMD

B1: IM-1062 Tribody (other)
heavy: GGSGGSEVQLVESGGGLVQPGGSLRLSCAASGFTFNTYAMNWVRQAPGKGLEWVARIRSKYNNYATYYADSVKDRFTISRDDSKNTLYLQMNSLRAEDTAVYYCVRHGNFGNSYVSWFAYWGQGTMVTVSSASTKGPSVFPLAPSSKSTSGGTAALGCLVKDYFPEPVTVSWNSGALTSGVHTFPAVLQSSGLYSLSSVVTVPSSSLGTQTYICNVNHKPSNTKVDKRVEPKSCPPCGGGGSDIQMTQSPSSLSASVGDRVTITCRASENIYSYLAWYQQKPGKAPKLLIYNAKTLAEGVPSRFSGSGSGTDFTLTISSLQPEDFATYYCQHHYGTPRTFGGGTKVEIKGGGGSGGGGSGGGGSGGGGSQVQLVQSGAEVKKPGASVKVSCKASGYTFTSYWMNWVRQAPGQGLEWMGRIDPYDSETHYAQKLQGRVTMTTDTSTSTAYMELRSLRSDDTAVYYCARGGYDFDVGTLYWFFDVWGQGTTVTVSS
light: GGSGGSQAVVTQEPSLTVSPGGTVTLTCRSSTGAVTTSNYANWVQQKPGQAPRGLIGGTNKRAPGTPARFSGSLLGGKAALTLSGVQPEDEAEYYCALWYSNLWVFGGGTKLTVLGQPKAAPSVTLFPPSSEELQANKATLVCLISDFYPGAVTVAWKADSSPVKAGVETTTPSKQSNNKYAASSYLSLTPEQWKSHRSYSCQVTHEGSTVEKTVAPTECPPCSGGGSDIQMTQSPSSLSASVGDRVTITCRASQGISNYLAWFQQKPGKAPKSLIYRANRLQSGVPSRFSGSGSGTDFTLTISSLQPEDVATYYCLQYDDFPWTFGQGTKLEIKGGGGSGGGGSGGGGSGGGGSQVQLVQSGAEVKKPGASVKVSCKASGYTFTSFWMHWVRQAPGQGLEWMGRIDPNRGGTEYNEKAKSRVTMTADKSTSTAYMELSSLRSEDTAVYYCAGGNPYYPMDYWGQGTTVTVSS
notes: Tri-specific antibody (Tribody): anti-CD3 epsilon Fab with an anti-5T4 scFv and an anti-NKG2A scFv, no regulatory domain; also called the Tribody format
Question: With B1 as the binder, how does the EC50 [1] read?
Answer: 45 nM

Question: What about the EC50 [2] of the same binder?
Answer: 6.5 nM

Question: And the EC50 [3]?
Answer: 1.69 nM

Question: And the EC50 [4]?
Answer: 0.9 nM

Question: And the EC50 [5]?
Answer: 29 nM
